In publication PMC2063504, “Glycerate kinase of the hyperthermophilic archaeon Thermoproteus tenax: new insights into the phylogenetic distribution and physiological role of members of the three different glycerate kinase classes” (BMC Genomics, 2007):

Experiments:
[1] = target: T1, glycerate kinase (GarK; class II glycerate kinase, MOFRL family) (Thermoproteus tenax, UniProt G4RPE9); assay: coupled assay, effector study; type: biochemical; conditions: product inhibitor, suggested competitive with ATP; 0.05 mM D-glycerate, 0.05 mM ATP (non-saturating), pH 7.5, 70 °C; mean of two measurements
T1 construct: full-length ORF, 398 residues, pET-24a (NdeI/EcoRI), E. coli BL21(DE3), no tag mentioned, conventional purification

[2] = system: Nc1ncnc2c1ncn2[C@@H]1O[C@H](COP(=O)(O)OP(=O)(O)OP(=O)(O)O)[C@@H](O)[C@H]1O; assay: discontinuous coupled assay (enolase, pyruvate kinase, lactate dehydrogenase; NADH); type: biochemical, Thermoproteus tenax; conditions: D-glycerate, 20 mM Mg2+, pH 7.5, 70 °C
O=C(O)[C@H](O)CO = assay: as above; type: biochemical, Thermoproteus tenax; conditions: 5 mM ATP, 20 mM Mg2+, pH 7.5, 70 °C, D-glycerate below 0.3 mM (substrate inhibition above)

Nc1ncnc2c1ncn2[C@@H]1O[C@H](COP(=O)(O)OP(=O)(O)O)[C@@H](O)[C@H]1O [ADP]
% activity of control at 0.1 mM [1]: 39.1%

glycerate kinase (GarK; class II glycerate kinase, MOFRL family) (Thermoproteus tenax Kra 1)
Km [2]: 0.03 ± 0.01 mM | kcat [2]: 187 min⁻¹ | Km (O=C(O)[C@H](O)CO): 0.02 ± 0.01 mM | kcat (O=C(O)[C@H](O)CO): 214 min⁻¹
